Laboratory results taken from patent US20100196390A1 (RINAT NEUROSCIENCE, published 2010).

biological target: TrkB (Homo sapiens (Human), UniProt Q16620 32-430); experiment: koff of Fab at 25 C; T1/2=Log2/koff
Procedure, shortened: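 Monovalent Fab fragments were tested at 25° C by surface plasmon resonance on a Biacore instrument, against TrkB extracellular-domain monomer amine-coupled to the chip at low capacity. Fabs were injected low to high as a 3-fold serial dilution from 100 nM for 84 sec, with a 10 minute dissociation after the top sample. The dissociation half-life was calculated from koff, which was fitted to a Langmuir binding model in BIAevaluation. The formula used was T1/2 = Log 2/koff.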

TrkB, sequence (Q16620 32-430 limits assumed): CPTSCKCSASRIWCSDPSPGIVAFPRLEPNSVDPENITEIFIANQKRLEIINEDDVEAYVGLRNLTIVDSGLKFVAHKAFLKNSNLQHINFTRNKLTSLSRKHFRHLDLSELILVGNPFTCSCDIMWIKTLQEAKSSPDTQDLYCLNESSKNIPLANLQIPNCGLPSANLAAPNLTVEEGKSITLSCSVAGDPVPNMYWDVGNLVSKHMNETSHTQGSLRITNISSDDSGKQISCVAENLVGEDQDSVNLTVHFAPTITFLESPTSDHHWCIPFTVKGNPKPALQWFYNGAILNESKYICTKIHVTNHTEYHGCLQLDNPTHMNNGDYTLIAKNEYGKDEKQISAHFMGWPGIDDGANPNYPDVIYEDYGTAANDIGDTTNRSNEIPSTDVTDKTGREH

Binder | T1/2 [min]
4B12-27 (Fab, V domains shown, Fab) VH: QVQLVQSGAEVKKPGASVKVSCKASGYTFTNYDIIWVRQAPGQGLEWMGYINPYNGRREYNEKFKGRVTMTRDTSTSTVYMELSSLRSEDTAVYYCARLLKARRFRYYAIDYWGQGTTVTVSS VL: DIQMTQSPSSLSASVGDRVTITCRASEPVYSNVAWYQQKPGKAPKLLIYAASNLQSGVPSRFSGSGSGTDYTFTISSLQPEDIATYYCQHFWGSPFTFGQGTKLEIK | 0.5
4B12-28 (Fab, V domains shown, Fab) VH: QVQLVQSGAEVKKPGASVKVSCKASGYTFTNYDIIWVRQAPGQGLEWMGYINPYNGRREYNEKFKGRVTMTRDTSTSTVYMELSSLRSEDTAVYYCARLLKYRRERYYAIDYWGQGTTVTVSS VL: DIQMTQSPSSLSASVGDRVTITCRASEPVYSNVAWYQQKPGKAPKLLIYAASNLQSGVPSRFSGSGSGTDYTFTISSLQPEDIATYYCQHFWGSPFTFGQGTKLEIK | 5.4
4B12-29 (Fab, V domains shown, Fab) VH: QVQLVQSGAEVKKPGASVKVSCKASGYTFTNYDIIWVRQAPGQGLEWMGYINPYNGRREYNEKFKGRVTMTRDTSTSTVYMELSSLRSEDTAVYYCARLLKYRRARYYAIDYWGQGTTVTVSS VL: DIQMTQSPSSLSASVGDRVTITCRASEPVYSNVAWYQQKPGKAPKLLIYAASNLQSGVPSRFSGSGSGTDYTFTISSLQPEDIATYYCQHFWGSPFTFGQGTKLEIK | 5.6
5-B1 (Fab, V domains shown, Fab) VH: QVQLVQSGAEVKKPGASVKVSCKASGYTFTNYVILWVRQAPGQGLEWMGYINPYNDGTKYNEKFKGRVTMTRDTSTSTVYMELSSLRSEDTAVYYCARLLKYRRFTYYAIHYWGQGTTVTVSS VL: DIQMTQSPSSLSASVGDRVTITCRASENVYSNLAWYQQKPGKAPKLLIYAASNLQSGVPSRFSGSGSGTDFTFTISSLQPEDIATYYCQHFWYSPFTFGQGTKLEIK | 1.36
5-B2 (Fab, V domains shown, Fab) VH: QVQLVQSGAEVKKPGASVKVSCKASGYTFTNYVILWVRQAPGQGLEWMGYINPYNDGTKYNEKFKGRVTMTRDTSTSTVYMELSSLRSEDTAVYYCARLLKYRRFSYYAIDYWGQGTTVTVSS VL: DIQMTQSPSSLSASVGDRVTITCRASENVYSNLAWYQQKPGKAPKLLIYAASNLQSGVPSRFSGSGSGTDFTFTISSLQPEDIATYYCQHFDYSPFTFGQGTKLEIK | 1.55
5-B8 (Fab, V domains shown, Fab) VH: QVQLVQSGAEVKKPGASVKVSCKASGYTFTNYVILWVRQAPGQGLEWMGYINPYNDGTKYNEKFKGRVTMTRDTSTSTVYMELSSLRSEDTAVYYCARLLKYRRFRYYAIDYWGQGTTVTVSS VL: DIQMTQSPSSLSASVGDRVTITCRASENVYSNLAWYQQKPGKAPKLLIYAASNLQSGVPSRFSGSGSGTDFTFTISSLQPEDIATYYCQQFWYSPFTFGQGTKLEIK | 1.82
5-D1 (Fab, V domains shown, Fab) VH: QVQLVQSGAEVKKPGASVKVSCKASGYTFTNYVILWVRQAPGQGLEWMGYINPYNDGTKYNEKFKGRVTMTRDTSTSTVYMELSSLRSEDTAVYYCARLLKYRRFRYYAIDVWGQGTTVTVSS VL: DIQMTQSPSSLSASVGDRVTITCRASENVYSNLAWYQQKPGKAPKLLIYAASNLQSGVPSRFSGSGSGTDFTFTISSLQPEDIATYYCQNFWYSPFTFGQGTKLEIK | 1.61
5-E2 (Fab, V domains shown, Fab) VH: QVQLVQSGAEVKKPGASVKVSCKASGYTFTNYVILWVRQAPGQGLEWMGYINPYNDGTKYNEKFKGRVTMTRDTSTSTVYMELSSLRSEDTAVYYCARLLKYRRFKYYAIDYWGQGTTVTVSS VL: DIQMTQSPSSLSASVGDRVTITCRASENVYSNLAWYQQKPGKAPKLLIYAASNLQSGVPSRFSGSGSGTDFTFTISSLQPEDIATYYCQHFWYSPFTFGQGTKLEIK | 1.66
5-F1 (Fab, V domains shown, Fab) VH: QVQLVQSGAEVKKPGASVKVSCKASGYTFTNYVILWVRQAPGQGLEWMGYINPYNDGTKYNEKFKGRVTMTRDTSTSTVYMELSSLRSEDTAVYYCARLLKYRRFKYYAIDYWGQGTTVTVSS VL: DIQMTQSPSSLSASVGDRVTITCRASENVYSNLAWYQQKPGKAPKLLIYAASNLQSGVPSRFSGSGSGTDFTFTISSLQPEDIATYYCQHFWYSPFLFGQGTKLEIK | 1.6
5-G4 (Fab, V domains shown, Fab) VH: QVQLVQSGAEVKKPGASVKVSCKASGYTFTNYVILWVRQAPGQGLEWMGYINPYNDGTKYNEKFKGRVTMTRDTSTSTVYMELSSLRSEDTAVYYCARLLKYRRFSYYAIDYWGQGTTVTVSS VL: DIQMTQSPSSLSASVGDRVTITCRASENVYSNLAWYQQKPGKAPKLLIYAASNLQSGVPSRFSGSGSGTDFTFTISSLQPEDIATYYCQHFWGSPFTFGQGTKLEIK | 1.35
6-A6 (Fab, V domains shown, Fab) VH: QVQLVQSGAEVKKPGASVKVSCKASGYTFTNYVILWVRQAPGQGLEWMGYINPYNDGTKYNEKFKGRVTMTRDTSTSTVYMELSSLRSEDTAVYYCARLLKYRRFKYYAIDYWGQGTTVTVSS VL: DIQMTQSPSSLSASVGDRVTITCRASENVYSNLAWYQQKPGKAPKLLIYAASNLQSGVPSRFSGSGSGTDFTFTISSLQPEDIATYYCQHFWYSPFVFGQGTKLEIK | 1.59
6-B4 (Fab, V domains shown, Fab) VH: QVQLVQSGAEVKKPGASVKVSCKASGYTFTNYVILWVRQAPGQGLEWMGYINPYNDGTKYNEKFKGRVTMTRDTSTSTVYMELSSLRSEDTAVYYCARLLKYRRFQYYAIDYWGQGTTVTVSS VL: DIQMTQSPSSLSASVGDRVTITCRASENVYSNLAWYQQKPGKAPKLLIYAASNLQSGVPSRFSGSGSGTDFTFTISSLQPEDIATYYCQHFWYSPFTFGQGTKLEIK | 1.55
6-B11 (Fab, V domains shown, Fab) VH: QVQLVQSGAEVKKPGASVKVSCKASGYTFTNYVILWVRQAPGQGLEWMGYINPYNDGTKYNEKFKGRVTMTRDTSTSTVYMELSSLRSEDTAVYYCARLLKYRRFSYYAIDYWGQGTTVTVSS VL: DIQMTQSPSSLSASVGDRVTITCRASENVYSNLAWYQQKPGKAPKLLIYAASNLQSGVPSRFSGSGSGTDFTFTISSLQPEDIATYYCQHFWQSPFTFGQGTKLEIK | 1.44
6-C10 (Fab, V domains shown, Fab) VH: QVQLVQSGAEVKKPGASVKVSCKASGYTFTNYVILWVRQAPGQGLEWMGYINPYNDGTKYNEKFKGRVTMTRDTSTSTVYMELSSLRSEDTAVYYCARLLKYRRFRYYAIDYWGQGTTVTVSS VL: DIQMTQSPSSLSASVGDRVTITCRASENVYSNLAWYQQKPGKAPKLLIYAASNLQSGVPSRFSGSGSGTDFTFTISSLQPEDIATYYCQHFWYSWFTFGQGTKLEIK | 1.55
6-D12 (Fab, V domains shown, Fab) VH: QVQLVQSGAEVKKPGASVKVSCKASGYTFTNYVILWVRQAPGQGLEWMGYINPYNDGTKYNEKFKGRVTMTRDTSTSTVYMELSSLRSEDTAVYYCARLLKYRRFRYYAIDYWGQGTTVTVSS VL: DIQMTQSPSSLSASVGDRVTITCRASENVYSNLAWYQQKPGKAPKLLIYAASNLQSGVPSRFSGSGSGTDFTFTISSLQPEDIATYYCQHFWASPFTFGQGTKLEIK | 1.7
6-E10 (Fab, V domains shown, Fab) VH: QVQLVQSGAEVKKPGASVKVSCKASGYTFTNYVILWVRQAPGQGLEWMGYINPYNDGTKYNEKFKGRVTMTRDTSTSTVYMELSSLRSEDTAVYYCARLLKYRPFSYYAIDYWGQGTTVTVSS VL: DIQMTQSPSSLSASVGDRVTITCRASENVYSNLAWYQQKPGKAPKLLIYAASNLQSGVPSRFSGSGSGTDFTFTISSLQPEDIATYYCQHFSLSPFTFGQGTKLEIK | 1.3
